Laboratory results taken from article PMC10681739, “High-throughput data and modeling reveal insights into the mechanisms of cooperative DNA-binding by transcription factor proteins”.

T1: ETS1 (Homo sapiens, UniProt P14921)
T1 sequence: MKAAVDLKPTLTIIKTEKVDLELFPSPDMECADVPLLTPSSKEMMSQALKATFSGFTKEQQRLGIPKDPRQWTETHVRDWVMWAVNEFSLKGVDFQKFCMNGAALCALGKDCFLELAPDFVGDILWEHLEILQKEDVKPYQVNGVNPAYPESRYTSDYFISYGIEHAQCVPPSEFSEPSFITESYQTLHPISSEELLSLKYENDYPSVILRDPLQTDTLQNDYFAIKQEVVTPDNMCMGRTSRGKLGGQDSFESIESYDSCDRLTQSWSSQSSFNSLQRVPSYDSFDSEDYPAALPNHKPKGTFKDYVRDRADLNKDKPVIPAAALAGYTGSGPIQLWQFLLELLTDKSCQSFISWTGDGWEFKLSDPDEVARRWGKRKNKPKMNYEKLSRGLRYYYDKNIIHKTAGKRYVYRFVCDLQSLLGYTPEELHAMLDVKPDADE

B1: Table S2 B row 540 (dsDNA)
DNA 1: AACAAACCGGATGGGGTTGCCACCTGCAATCTTGTC
DNA 2: GACAAGATTGCAGGTGGCAACCCCATCCGGTTTGTT
B2: Table S2 B row 2829 (dsDNA)
DNA 1: AGTGTCCGCCGCTTCCTGGTTGCGCGTCAGCGCCCA
DNA 2: TGGGCGCTGACGCGCAACCAGGAAGCGGCGGACACT
B3: Table S2 B row 306 (dsDNA)
DNA 1: GAGAAACAGGAAGAGGGGTGGTGCTTACGGAACACG
DNA 2: CGTGTTCCGTAAGCACCACCCCTCTTCCTGTTTCTC
B4: Table S2 B row 2667 (dsDNA)
DNA 1: GGGATCTACTTCCTCTCTCGGCCTCGGGCGCTGCAC
DNA 2: GTGCAGCGCCCGAGGCCGAGAGAGGAAGTAGATCCC
B5: Table S2 B row 3084 (dsDNA)
DNA 1: TTTGCACACATCCTGGCCTCCGCCTGAGCACCTCCT
DNA 2: AGGAGGTGCTCAGGCGGAGGCCAGGATGTGTGCAAA
B6: Table S2 B row 575 (dsDNA)
DNA 1: GCAGTGCAGGAAGTGCTTTGTCTGGTACAATCCCAA
DNA 2: TTGGGATTGTACCAGACAAAGCACTTCCTGCACTGC
B7: Table S2 B row 3063 (dsDNA)
DNA 1: GTATCACTTCCTGTTTTCCTCTGTAGCTTACTGCTG
DNA 2: CAGCAGTAAGCTACAGAGGAAAACAGGAAGTGATAC
B8: Table S2 B row 799 (dsDNA)
DNA 1: ATGAACCACTTCCTGTGTGTTCCCAGAGAGGTCAGG
DNA 2: CCTGACCTCTCTGGGAACACACAGGAAGTGGTTCAT
B9: Table S2 B row 544 (dsDNA)
DNA 1: GCTCCCGGATGTTCTGGGGATCAGCGCCCGCCTGGC
DNA 2: GCCAGGCGGGCGCTGATCCCCAGAACATCCGGGAGC
B10: Table S2 B row 3902 (dsDNA)
DNA 1: TGGGGCCCGGAAGCGCTGGCGCCTTACGGCCAGAAG
DNA 2: CTTCTGGCCGTAAGGCGCCAGCGCTTCCGGGCCCCA
B11: Table S2 B row 3509 (dsDNA)
DNA 1: CATGAGAAACATCCTGCCCAACAACCTGACTACAAG
DNA 2: CTTGTAGTCAGGTTGTTGGGCAGGATGTTTCTCATG
B12: Table S2 B row 3173 (dsDNA)
DNA 1: GACTGCACTTCCTCTGCTTCGAGGTCGGTGCTTAGC
DNA 2: GCTAAGCACCGACCTCGAAGCAGAGGAAGTGCAGTC
B13: Table S2 B row 2874 (dsDNA)
DNA 1: TGAGCAAGTTCCTTCCTGTCTGTGCTCCAGGGTTTA
DNA 2: TAAACCCTGGAGCACAGACAGGAAGGAACTTGCTCA
B14: Table S2 B row 2744 (dsDNA)
DNA 1: TTAGCACATCCTGGGTACACAGAGCACAGCCTCCTC
DNA 2: GAGGAGGCTGTGCTCTGTGTACCCAGGATGTGCTAA
B15: Table S2 B row 1497 (dsDNA)
DNA 1: CAACACAGGATGTGCAGTATTATACGGCAAAGCACT
DNA 2: AGTGCTTTGCCGTATAATACTGCACATCCTGTGTTG
B16: Table S2 B row 145 (dsDNA)
DNA 1: CCACCATCTTTCCGGCTCCCTCGCGACCTCCACGAC
DNA 2: GTCGTGGAGGTCGCGAGGGAGCCGGAAAGATGGTGG
B17: Table S2 B row 2699 (dsDNA)
DNA 1: CTCAGGAATGCGGAAGTGCTCTGTGAGCACCCACCA
DNA 2: TGGTGGGTGCTCACAGAGCACTTCCGCATTCCTGAG
B18: Table S2 B row 1677 (dsDNA)
DNA 1: TGTTTTTGTTTCCGTTTACAAACTACAACAAAGGTG
DNA 2: CACCTTTGTTGTAGTTTGTAAACGGAAACAAAAACA
B19: Table S2 B row 2489 (dsDNA)
DNA 1: CCTTCCTTCCTGCTGTGTACGTTGGGGTCACAGCAC
DNA 2: GTGCTGTGACCCCAACGTACACAGCAGGAAGGAAGG
B20: Table S2 B row 4083 (dsDNA)
DNA 1: GCCCCAGCGTTTCCTCTTACCCAAAATGCCCCGCCC
DNA 2: GGGCGGGGCATTTTGGGTAAGAGGAAACGCTGGGGC
B21: Table S2 B row 3031 (dsDNA)
DNA 1: CCCGGGGGCAGGAAATGTCGCCTTACCCTCAGCCTT
DNA 2: AAGGCTGAGGGTAAGGCGACATTTCCTGCCCCCGGG
B22: Table S2 B row 1543 (dsDNA)
DNA 1: AAACCAGAGAGGAAGTGGCACCTCATGGCCAGACTG
DNA 2: CAGTCTGGCCATGAGGTGCCACTTCCTCTCTGGTTT
B23: Table S2 B row 813 (dsDNA)
DNA 1: TGATGTAGAATCCGCTCGGCTTCCGGCGAGGGTGGG
DNA 2: CCCACCCTCGCCGGAAGCCGAGCGGATTCTACATCA
B24: Table S2 B row 3837 (dsDNA)
DNA 1: CTGCTTCCGGCCCCGGGGTTCGCTACCCCAAAATCC
DNA 2: GGATTTTGGGGTAGCGAACCCCGGGGCCGGAAGCAG
B25: Table S2 B row 1434 (dsDNA)
DNA 1: GGCCGGAAGCGCTCTCGTTGGCCCAGCGGCGCTGGA
DNA 2: TCCAGCGCCGCTGGGCCAACGAGAGCGCTTCCGGCC
B26: Table S2 B row 1859 (dsDNA)
DNA 1: GTGAACTTCCTCCCCCACTGCCTATTTTTACAGCAG
DNA 2: CTGCTGTAAAAATAGGCAGTGGGGGAGGAAGTTCAC
B27: Table S2 B row 1777 (dsDNA)
DNA 1: CCTTCCTTCCGCTGGCAGTAACTAGGCAGTGGACAC
DNA 2: GTGTCCACTGCCTAGTTACTGCCAGCGGAAGGAAGG
B28: Table S2 B row 875 (dsDNA)
DNA 1: AGGCAGCACAGGAAGTTATAACTACATGTACACTTG
DNA 2: CAAGTGTACATGTAGTTATAACTTCCTGTGCTGCCT
B29: Table S2 B row 1731 (dsDNA)
DNA 1: GACTGGTTTCCTGGTTTTGATGTAGTTTAGAGAAAA
DNA 2: TTTTCTCTAAACTACATCAAAACCAGGAAACCAGTC
B30: Table S2 B row 1163 (dsDNA)
DNA 1: ATCACTTGTTTCCGCCAGCAAATCACAGGTCCCCAG
DNA 2: CTGGGGACCTGTGATTTGCTGGCGGAAACAAGTGAT
B31: Table S2 B row 980 (dsDNA)
DNA 1: GCGGGCGGAAGTGCCGAGGTTGTACCTCGGCGCTGG
DNA 2: CCAGCGCCGAGGTACAACCTCGGCACTTCCGCCCGC
B32: Table S2 B row 1979 (dsDNA)
DNA 1: CTGAAACAGGAAGCTGAGGGTGCCGTTGGGGGAGGA
DNA 2: TCCTCCCCCAACGGCACCCTCAGCTTCCTGTTTCAG
B33: Table S2 B row 1459 (dsDNA)
DNA 1: CAGATCCGGCGTGGACGAAGCTCGGGAACTACAACA
DNA 2: TGTTGTAGTTCCCGAGCTTCGTCCACGCCGGATCTG
B34: Table S2 B row 1606 (dsDNA)
DNA 1: CCGCTTCCTTAGAGGTTAAGTGGTGGAGGTTCAGTT
DNA 2: AACTGAACCTCCACCACTTAACCTCTAAGGAAGCGG
B35: Table S2 B row 2356 (dsDNA)
DNA 1: CTTCTTCCTGCTGAGACTGATACAGCCCGAAAAGCT
DNA 2: AGCTTTTCGGGCTGTATCAGTCTCAGCAGGAAGAAG
B36: Table S2 B row 3281 (dsDNA)
DNA 1: GACCTGACAACATCCTGGCGCAGTGAGTTGGCCCTG
DNA 2: CAGGGCCAACTCACTGCGCCAGGATGTTGTCAGGTC
B37: Table S2 B row 3477 (dsDNA)
DNA 1: CTACCGGGAGTGCAGGTCGCGCTTCCGGCGGCGTCC
DNA 2: GGACGCCGCCGGAAGCGCGACCTGCACTCCCGGTAG
B38: Table S2 B row 1297 (dsDNA)
DNA 1: CCTAGAACCGGAAGAGAAAGGGGCTGGGGTGCAGCA
DNA 2: TGCTGCACCCCAGCCCCTTTCTCTTCCGGTTCTAGG
B39: Table S2 B row 3968 (dsDNA)
DNA 1: GCCGCCGTTTCCTGATTGGTCGTGGGTGGCTACCTC
DNA 2: GAGGTAGCCACCCACGACCAATCAGGAAACGGCGGC
B40: Table S2 B row 1126 (dsDNA)
DNA 1: TCCAGCCCCACCGGAAGTGGATGTGATTAATCTAGT
DNA 2: ACTAGATTAATCACATCCACTTCCGGTGGGGCTGGA
B41: Table S2 B row 1396 (dsDNA)
DNA 1: GAGGAGGAAAGCGGAAGCGCTGCCCTCAGTGGTAGG
DNA 2: CCTACCACTGAGGGCAGCGCTTCCGCTTTCCTCCTC
B42: Table S2 B row 573 (dsDNA)
DNA 1: GCCACCGTATTTCCGCGTTTTTCGAGGTAGGCGGGA
DNA 2: TCCCGCCTACCTCGAAAAACGCGGAAATACGGTGGC

Target: T1, ETS1
Test: gcPBM; 1 nM ETS1
Conditions: tags: N-terminal GST (pDEST15), kept (PMC6008103); label: surface-attached array probe

Binder | binding signal
B1 | 3220 PBM fluorescence, median of replicate spots
B2 | 5900 PBM fluorescence, median of replicate spots
B3 | 2960 PBM fluorescence, median of replicate spots
B4 | 6350 PBM fluorescence, median of replicate spots
B5 | 3370 PBM fluorescence, median of replicate spots
B6 | 4090 PBM fluorescence, median of replicate spots
B7 | 30200 PBM fluorescence, median of replicate spots
B8 | 25100 PBM fluorescence, median of replicate spots
B9 | 3300 PBM fluorescence, median of replicate spots
B10 | 3570 PBM fluorescence, median of replicate spots
B11 | 5340 PBM fluorescence, median of replicate spots
B12 | 6100 PBM fluorescence, median of replicate spots
B13 | 5140 PBM fluorescence, median of replicate spots
B14 | 5610 PBM fluorescence, median of replicate spots
B15 | 6480 PBM fluorescence, median of replicate spots
B16 | 3090 PBM fluorescence, median of replicate spots
B17 | 4940 PBM fluorescence, median of replicate spots
B18 | 5730 PBM fluorescence, median of replicate spots
B19 | 5450 PBM fluorescence, median of replicate spots
B20 | 3440 PBM fluorescence, median of replicate spots
B21 | 4680 PBM fluorescence, median of replicate spots

Binder | binding signal
B22 | 3160 PBM fluorescence, median of replicate spots
B23 | 4160 PBM fluorescence, median of replicate spots
B24 | 27500 PBM fluorescence, median of replicate spots
B25 | 6040 PBM fluorescence, median of replicate spots
B26 | 4830 PBM fluorescence, median of replicate spots
B27 | 5510 PBM fluorescence, median of replicate spots
B28 | 4250 PBM fluorescence, median of replicate spots
B29 | 3820 PBM fluorescence, median of replicate spots
B30 | 3770 PBM fluorescence, median of replicate spots
B31 | 4750 PBM fluorescence, median of replicate spots
B32 | 3960 PBM fluorescence, median of replicate spots
B33 | 5020 PBM fluorescence, median of replicate spots
B34 | 3060 PBM fluorescence, median of replicate spots
B35 | 6230 PBM fluorescence, median of replicate spots
B36 | 3720 PBM fluorescence, median of replicate spots
B37 | 3610 PBM fluorescence, median of replicate spots
B38 | 4610 PBM fluorescence, median of replicate spots
B39 | 4470 PBM fluorescence, median of replicate spots
B40 | 25900 PBM fluorescence, median of replicate spots
B41 | 4360 PBM fluorescence, median of replicate spots
B42 | 3870 PBM fluorescence, median of replicate spots
